Experimental data as given in patent publication US20200264182A1, “METHOD FOR DETECTING PROSTATE CANCER” (J-OIL MILLS, INC., priority 2017, published 2020).

Assays:
[1] = Binding to sugar chains, summary of Tables 2 to 5; settings: sugar chains No. 718, 722, 723, 727, 909, 910 and 933
Experimental: (§1) Details of the FAC method are described in Patent Document 2 filed by some of the present applicants, for example.
(§2) Binding constants (at 25° C.) of PhoSL, SRL, NSL and LSL belonging to the fucose α1→6 specific lectin for various sugar chains are shown in Tables 2 to 5.
The AAL and AOL bind to the fucose α1→6 sugar chains (sugar chains No. 015, 201 to 203, and 401 to 418), as well as to the glycolipid-type sugar chain excluding the fucose α1→6 (sugar chains No. 718, 722, 723, 727, 909, 910 and 933). The LCL and PSL bind to the fucose α1→6 sugar chain, as well as to sugar chain excluding the α1→6 fucose (sugar chains No. 003, and 005 to 014).

[2] = FAC binding constant; settings: at 25° C.
Experimental: as §1, §2

[3] = FAC binding constant (Table 5 entry); settings: Table 5: sugar chain having no fucose; at 25° C.
Experimental: as §1, §2

[4] = sugar chain having fucose other than α1→6 fucose

B1: AAL: Aleuria aurantia lectin, has affinity for fucose α1→6 but is not specific; from J-OIL MILLS, Inc. (protein)
chain: PTEFLYTSKIAAISWAATGGRQQRVYFQDLNGKIREAQRGGDNPWTGGSSQNVIGEAKLFSPLAAVTWKSAQGIQIRVYCVNKDNILSEFVYDGSKWITGQLGSVGVKVGSNSKLAALQWGGSESAPPNIRVYYQKSNGSGSSIHEYVWSGKWTAGASFGSTVPGTGIGATAIGPGRLRIYYQATDNKIREHCWDSNSWYVGGFSASASAGVSIAAISWGSTPNIRVYWQKGREELYEAAYGGSWNTPGQIKDASRPTPSLPDTFIAANSSGNIDISVFFQASGVSLQQWQWISGKGWSIGAVVPTGTPAGW
[1]
  binding to the glycolipid-type sugar chain excluding the fucose α1→6 (in words): bind
[2]; Table 3: sugar chain having fucose other than α1→6 fucose
  Binding constant for sugar chain No. 728: <1000 M⁻¹
[2]; [4]
  Binding constant for sugar chain No. 419: <1000 M⁻¹
  Binding constant for sugar chain No. 420: <1000 M⁻¹
  Binding constant for sugar chain No. 718: 65000 M⁻¹
  Binding constant for sugar chain No. 719: <1000 M⁻¹
  Binding constant for sugar chain No. 720: <1000 M⁻¹
  Binding constant for sugar chain No. 721: <1000 M⁻¹
  Binding constant for sugar chain No. 722: <1000 M⁻¹
  Binding constant for sugar chain No. 723: 35000 M⁻¹
  Binding constant for sugar chain No. 726: <1000 M⁻¹
  Binding constant for sugar chain No. 727: 130000 M⁻¹
  Binding constant for sugar chain No. 729: <1000 M⁻¹
  Binding constant for sugar chain No. 730: <1000 M⁻¹
  Binding constant for sugar chain No. 731: <1000 M⁻¹
  Binding constant for sugar chain No. 739: <1000 M⁻¹
  Binding constant for sugar chain No. 909: 310000 M⁻¹
  Binding constant for sugar chain No. 910: 90000 M⁻¹
  Binding constant for sugar chain No. 931: <1000 M⁻¹
  Binding constant for sugar chain No. 932: <1000 M⁻¹
  Binding constant for sugar chain No. 933: 210000 M⁻¹
[2]; sugar chain having no fucose
  Binding constant for sugar chain No. 001: <1000 M⁻¹
  Binding constant for sugar chain No. 002: <1000 M⁻¹
  Binding constant for sugar chain No. 003: <1000 M⁻¹
  Binding constant for sugar chain No. 004: <1000 M⁻¹
  Binding constant for sugar chain No. 005: <1000 M⁻¹
  Binding constant for sugar chain No. 006: <1000 M⁻¹
  Binding constant for sugar chain No. 007: <1000 M⁻¹
  Binding constant for sugar chain No. 008: <1000 M⁻¹
  Binding constant for sugar chain No. 009: <1000 M⁻¹
  Binding constant for sugar chain No. 010: <1000 M⁻¹
  Binding constant for sugar chain No. 011: <1000 M⁻¹
  Binding constant for sugar chain No. 012: <1000 M⁻¹
  Binding constant for sugar chain No. 013: <1000 M⁻¹
  Binding constant for sugar chain No. 014: <1000 M⁻¹
  Binding constant for sugar chain No. 101: <1000 M⁻¹
  Binding constant for sugar chain No. 103: <1000 M⁻¹
  Binding constant for sugar chain No. 104: <1000 M⁻¹
  Binding constant for sugar chain No. 105: <1000 M⁻¹
  Binding constant for sugar chain No. 107: <1000 M⁻¹
  Binding constant for sugar chain No. 108: <1000 M⁻¹
  Binding constant for sugar chain No. 301: <1000 M⁻¹
  Binding constant for sugar chain No. 304: <1000 M⁻¹
  Binding constant for sugar chain No. 305: <1000 M⁻¹
  Binding constant for sugar chain No. 307: <1000 M⁻¹
  Binding constant for sugar chain No. 308: <1000 M⁻¹
  Binding constant for sugar chain No. 313: <1000 M⁻¹
  Binding constant for sugar chain No. 314: <1000 M⁻¹
  Binding constant for sugar chain No. 323: <1000 M⁻¹
  Binding constant for sugar chain No. 501: <1000 M⁻¹
  Binding constant for sugar chain No. 502: <1000 M⁻¹
  Binding constant for sugar chain No. 503: <1000 M⁻¹
  Binding constant for sugar chain No. 504: <1000 M⁻¹
  Binding constant for sugar chain No. 701: <1000 M⁻¹
  Binding constant for sugar chain No. 702: <1000 M⁻¹
  Binding constant for sugar chain No. 703: <1000 M⁻¹
  Binding constant for sugar chain No. 704: <1000 M⁻¹
  Binding constant for sugar chain No. 705: <1000 M⁻¹
  Binding constant for sugar chain No. 706: <1000 M⁻¹
  Binding constant for sugar chain No. 707: <1000 M⁻¹
  Binding constant for sugar chain No. 708: <1000 M⁻¹
  Binding constant for sugar chain No. 709: <1000 M⁻¹
  Binding constant for sugar chain No. 710: <1000 M⁻¹
  Binding constant for sugar chain No. 711: <1000 M⁻¹
  Binding constant for sugar chain No. 712: <1000 M⁻¹
  Binding constant for sugar chain No. 713: <1000 M⁻¹
  Binding constant for sugar chain No. 715: <1000 M⁻¹
  Binding constant for sugar chain No. 716: <1000 M⁻¹
  Binding constant for sugar chain No. 717: <1000 M⁻¹
  Binding constant for sugar chain No. 724: <1000 M⁻¹
  Binding constant for sugar chain No. 725: <1000 M⁻¹
  Binding constant for sugar chain No. 732: <1000 M⁻¹
  Binding constant for sugar chain No. 733: <1000 M⁻¹
  Binding constant for sugar chain No. 734: <1000 M⁻¹
  Binding constant for sugar chain No. 735: <1000 M⁻¹
  Binding constant for sugar chain No. 736: <1000 M⁻¹
  Binding constant for sugar chain No. 737: <1000 M⁻¹
  Binding constant for sugar chain No. 738: <1000 M⁻¹
  Binding constant for sugar chain No. 901: <1000 M⁻¹
  Binding constant for sugar chain No. 902: <1000 M⁻¹
  Binding constant for sugar chain No. 903: <1000 M⁻¹
  Binding constant for sugar chain No. 905: <1000 M⁻¹
  Binding constant for sugar chain No. 906: <1000 M⁻¹
  Binding constant for sugar chain No. 907: <1000 M⁻¹
[2]; sugar chain having α1→6 fucose
  Binding constant for sugar chain No. 015: 91000 M⁻¹
  Binding constant for sugar chain No. 201: 51000 M⁻¹
  Binding constant for sugar chain No. 202: 54000 M⁻¹
  Binding constant for sugar chain No. 203: 66000 M⁻¹
  Binding constant for sugar chain No. 401: 55000 M⁻¹
  Binding constant for sugar chain No. 402: 11000 M⁻¹
  Binding constant for sugar chain No. 403: 52000 M⁻¹
  Binding constant for sugar chain No. 404: 65000 M⁻¹
  Binding constant for sugar chain No. 405: 56000 M⁻¹
  Binding constant for sugar chain No. 406: 47000 M⁻¹
  Binding constant for sugar chain No. 407: 45000 M⁻¹
  Binding constant for sugar chain No. 410: 38000 M⁻¹
  Binding constant for sugar chain No. 413: 32000 M⁻¹
  Binding constant for sugar chain No. 418: <1000 M⁻¹
  Binding constant for sugar chain No. 601: 61000 M⁻¹
  Binding constant for sugar chain No. 602: 52000 M⁻¹
[3]
  Binding constant for sugar chain No. 728: <1000 M⁻¹
